Source: patent US5739291, “Glutamate receptor antibodies” (The Salk Institute For Biological Studies, dated 1998)

Molecular target: glutamate receptor subunit GluR2 (rat)
Experiment: cell-based or functional assay

Chain of glutamate receptor subunit GluR2 (rat) (chain, as listed by the source limits assumed): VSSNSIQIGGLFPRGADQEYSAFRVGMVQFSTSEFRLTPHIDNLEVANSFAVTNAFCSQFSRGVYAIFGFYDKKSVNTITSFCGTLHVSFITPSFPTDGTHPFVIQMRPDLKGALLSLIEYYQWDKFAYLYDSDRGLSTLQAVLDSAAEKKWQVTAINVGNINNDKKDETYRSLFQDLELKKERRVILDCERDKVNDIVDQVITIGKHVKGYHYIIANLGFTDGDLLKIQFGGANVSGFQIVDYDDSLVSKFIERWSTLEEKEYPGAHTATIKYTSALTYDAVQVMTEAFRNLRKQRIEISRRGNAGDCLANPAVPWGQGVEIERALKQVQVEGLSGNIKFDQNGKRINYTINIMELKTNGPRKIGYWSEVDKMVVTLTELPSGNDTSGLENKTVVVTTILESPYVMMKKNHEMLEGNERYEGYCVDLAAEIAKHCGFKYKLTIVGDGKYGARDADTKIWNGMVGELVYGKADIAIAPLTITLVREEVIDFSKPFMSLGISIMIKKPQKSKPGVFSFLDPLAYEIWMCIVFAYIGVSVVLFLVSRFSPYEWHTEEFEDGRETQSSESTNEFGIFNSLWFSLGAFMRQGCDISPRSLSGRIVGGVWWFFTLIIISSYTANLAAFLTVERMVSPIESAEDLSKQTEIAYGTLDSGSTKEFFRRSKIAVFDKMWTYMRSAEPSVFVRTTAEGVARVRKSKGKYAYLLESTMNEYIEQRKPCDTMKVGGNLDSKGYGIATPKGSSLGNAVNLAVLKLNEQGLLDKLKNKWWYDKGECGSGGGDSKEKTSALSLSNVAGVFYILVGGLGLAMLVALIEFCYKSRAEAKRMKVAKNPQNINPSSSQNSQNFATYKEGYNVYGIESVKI

B1: glutamate receptor subunit GluR1 (receptor)
chain: ANFPNNIQIGGLFPNQQSQEHAAFRFALSQLTEPPKLLPQIDIVNISDTFEMTYRFCSQFSKGVYAIFGFYERRTVNMLTSFCGALHVCFITPSFPVDTSNQFVLQLRPELQEALISIIDHYKWQTFVYIYDADRGLSVLQRVLDTAAEKNWQVTAVNILTTTEEGYRMLFQDLEKKKERLVVVDCESERLNAILGQIVKLEKNGIGYHYILANLGFMDIDLNKFKESGRNVTGFQLVNYTDTIPARIMQQWRTSDSRDHTRVDWKRPKYTSALTYDGVKVMAEAFQSLRRQRIDISRRGNAGDCLANPAVPWGQGIDIQRALQQVRFEGLTGNVQFNEKGRRTNYTLHVIEMKHDGIRKIGYWNEDDKFVPAATDAQAGGDNSSVQNRTYIVTTILEDPYVMLKKNANQFEGNDRYEGYCVELAAEIAKHVGYSYRLEIVSDGKYGARDPDTKAWNGMVGELVYGRADVAVAPLTITLVREEVIDFSKPFMSLGISIMIKKPQKSKPGVFSFLDPLAYEIWMCIVFAYIGVSVVLFLVSRFSPYEWHSEEFEEGRDQTTSDQSNEFGIFNSLWFSLGAFMQQGCDISPRSLSGRIVGGVWWFFTLIIISSYTANLAAFLTVERMVSPIESAEDLAKQTEIAYGTLEAGSTKEFFRRSKIAVFEKMWTYMKSAEPSVFVRTTEEGMIRVRKSKGKYAYLLESTMNEYIEQRKPCDTMKVGGNLDSKGYGIATPKGSALRNPVNLAVLKLNEQGLLDKLKNKWWYDKGECGTGGGDSKDKTSALSLSNVAGVFYILIGGLGLAMLVALIEFCYKSRSESKRMKGFCLIPQQSINEAIRTSTLPRNSGAGASGGGGSGENGRVVSQDFPKSMQSIPCMSHSSGMPLGATGL
Question: Which “KA-evoked currents in Xenopus oocytes on co-expression, against the summed responses of singly injected oocytes” value does the source give for B1 here?
Answer: Its value is ~4 fold.
